Data on 2 molecules can be found in patent publication US20250215097A1.

The test concerns the target human CCR8 (human) (UniProt P51685). The test can be described thus: cell-based or functional assay.

human CCR8 (human), sequence (P51685 whole entry): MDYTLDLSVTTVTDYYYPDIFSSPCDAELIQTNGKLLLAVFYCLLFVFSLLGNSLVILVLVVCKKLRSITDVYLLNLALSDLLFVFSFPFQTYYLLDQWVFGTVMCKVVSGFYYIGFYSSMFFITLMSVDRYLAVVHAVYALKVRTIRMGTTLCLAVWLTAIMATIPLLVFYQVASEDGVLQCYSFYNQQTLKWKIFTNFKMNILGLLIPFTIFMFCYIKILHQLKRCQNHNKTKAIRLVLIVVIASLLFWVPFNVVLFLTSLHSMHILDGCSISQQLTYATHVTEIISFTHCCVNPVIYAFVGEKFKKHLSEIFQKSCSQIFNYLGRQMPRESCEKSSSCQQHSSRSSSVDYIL

B1: h10A11 (antibody, from another filing, V domains shown)
VH: EVQLVESGGALVKPGGSLRLSCAASGFTFSTYALYWVRQAPGKGLEWVGRIRSKSNNYATYYADSVKDRFTISRDDSKNTLYLQMNSLKTEDTAVYYCTRARFYYSDYGYAMDYWGQGTLVTVSS
VL: DIVMTQSPDSLAVSLGERATINCRSSKSLLHSNGNTYLYWYQQKPGQPPKLLIYRMSNLASGVPDRFSGSGSGTDFTLTISSLQAEDVAVYYCMQHLEYPLTFGQGTKLEIKR
Molecule B1 gave an ADCC EC50 (nM), PBMC FcγRIIIA158F/F effectors, HEK293-hCCR8 targets of 0.21 nM; an ADCC EC50 (nM), PBMC FcγRIIIA158V/V effectors, HEK293-hCCR8 targets of 0.03 nM; an ADCC maximal lysis rate, PBMC FcγRIIIA158F/F effectors, HEK293-hCCR8 targets of 61%; an ADCC maximal lysis rate, PBMC FcγRIIIA158V/V effectors, HEK293-hCCR8 targets of 63%.

B2: m10A11 (chimera) (antibody, from another filing, V domains shown)
VH: EVQLVESGGRLVQPKGSLKLSCAASGFAFNTYALYWIRQAPGKGLEWVARIRSKSNNYATYYADSVKDRFTISRDDSQSMLYLQMNNLKTEDTAMYYCVRARFYYSDYGYAMDYWGQGTSVTVSS
VL: DIVMTQAAPSVPVTPGESVSISCRSSKSLLHSNGNTYLYWFLQRPGQSPQLLIYRMSNLASGVPDRFSGSGSGTAFTLRISRVEAEDVGVYYCMQHLEYPLTFGAGTKLELKR
Turning to B2, the ADCC EC50 (nM), NK92-CD16A effectors, HEK293-hCCR8 targets, LDH release stood at 0.12 nM; the ADCC EC50 (nM), PBMC FcγRIIIA158F/F effectors, HEK293-hCCR8 targets came to 0.19 nM; the ADCC EC50 (nM), PBMC FcγRIIIA158V/V effectors, HEK293-hCCR8 targets worked out at 0.05 nM; the ADCC half-maximal effective concentration (EC50), NK92-CD16A effectors, HEK293-hCCR8 targets turned out to be 0.03 nM. The ADCC maximal lysis rate, NK92-CD16A effectors, HEK293-hCCR8 targets is 30%; the ADCC maximal lysis rate, PBMC FcγRIIIA158F/F effectors, HEK293-hCCR8 targets came to 66%; the ADCC maximal lysis rate, PBMC FcγRIIIA158V/V effectors, HEK293-hCCR8 targets was found to be 68%.
